Test results from article PMC8044456, “Tandem UGT71B5s Catalyze Lignan Glycosylation in Isatis indigotica With Substrates Promiscuity” (Frontiers in Plant Science, 2021).

Legend:
Experiment in all cases: LC/MS glucosylation assay, Lineweaver-Burk
Type in all cases: biochemical, Isatis tinctoria
Details in all cases: 2 mM UDP-glucose, 20–200 μM acceptor, 100 mM phosphate pH 8.0, 30°C
[1] = substrate: COc1cc(C[C@@H](CO)[C@H](CO)Cc2ccc(O)c(OC)c2)ccc1O
Description: (§1) LC/MS glucosylation assay, Lineweaver-Burk on IiUGT71B5a

[2] = substrate: COc1cc(C[C@H]2COC(=O)[C@@H]2Cc2ccc(O)c(OC)c2)ccc1O
Description: as §1

[3] = substrate: COc1cc(C[C@H]2CO[C@H](c3ccc(O)c(OC)c3)[C@H]2CO)ccc1O
Description: as §1

[4] = substrate: COc1cc([C@@H]2OC[C@@H]3[C@H]2CO[C@H]3c2ccc(O)c(OC)c2)ccc1O
Description: as §1

[5] = substrate: Oc1cc2c(cc1[C@H]1OC[C@H]3[C@@H]1CO[C@@H]3c1ccc3c(c1)OCO3)OCO2
Description: as §1

[6] = substrate: [H][C@@]1(Oc2ccc([C@H]3OC[C@]4([H])[C@@H](c5ccc(O)c(OC)c5)OC[C@]34[H])cc2OC)O[C@H](CO)[C@@H](O)[C@H](O)[C@H]1O
Description: as §1

[7] = substrate: COc1cc(C[C@H]2COC(=O)[C@@H]2Cc2ccc(O)c(OC)c2)ccc1O; remark: listed apart in the source
Description: (§2) LC/MS glucosylation assay, Lineweaver-Burk on IiUGT71B5b

[8] = substrate: Oc1cc2c(cc1[C@H]1OC[C@H]3[C@@H]1CO[C@@H]3c1ccc3c(c1)OCO3)OCO2; remark: listed apart in the source
Description: as §2

B1: IiUGT71B5a (Isatis tinctoria) (protein)
chain: MKIELVFIPSPGIGHLRSTVELAKQLVNGDDRLSITVIIIPRSSGGDATDSAQISSLFAASQDRLRYETISVADEPTADRLPTQLYIKNQKPQVRDAVAKILDPARVDSPPRLAGFVVDMFCTSMIDLADEFGVPTYMVYTSNATFLGITLHLQLMLDEKKYDTSELDESVNELEFPCLTRPYPVECLPYLFISKEWLPFFMDQARSFRKMKGILVNTVAELEPHALELFSGDDDLPRAYPVGPVLHLESGSDNSNDDGKQSEILRWLDDQPAKSVVFLCFGSMGGFNEEQTREIAVALDRSGHRFLWSLRRASPDILKQGPGDYTDLDEVLPEGFLDRTLERGKIIGWAPQAAVLAKPAIGGFVTHCGWNSMLESLWFGVPMVTWPLYAEQKVNAFVMVEELGLAVEIRRSLKGDLMAGGMETVAAEDIERAIRRVMEQDSDVRNRVKEMAEKCHVALTDGGSSQVALRKFIQDVIENVVV
notes: full-length ORF 1,449 bp, 482 aa; pET-32a+ tagged recombinant, E. coli BL21(DE3), Ni-NTA; tag removal not mentioned; gene in tandem cluster Ii4G26670/Ii4G26680/Ii4G26690 (Ii4G26690 = IiUGT71B5c); genome VHIU00000000
With B1 the Km [1] was 168.48 ± 9.18 µM, the Vmax [1] was 8.34e-05 µmol/min and the kcat [1] was 0.0961 s⁻¹. The kcat/Km [1] was 571 M⁻¹ s⁻¹, the Km [2] was 62.35 ± 1.53 µM and the Vmax [2] was 3.5e-05 µmol/min. For the same protein, the kcat [2] was 0.0403 s⁻¹, the kcat/Km [2] was 646 M⁻¹ s⁻¹ and the Km [3] was 568.29 ± 16.08 µM. It also gave a Vmax [3] of 0.000141 µmol/min, a kcat [3] of 0.162 s⁻¹ and a kcat/Km [3] of 285 M⁻¹ s⁻¹. For the same protein, the Km [4] was 67.16 ± 2.00 µM, the Vmax [4] was 6.12e-05 µmol/min and the kcat [4] was 0.07 s⁻¹. The kcat/Km [4] was 1040 M⁻¹ s⁻¹, the Km [5] was 48.00 ± 0.79 µM and the Vmax [5] was 0.00049 µmol/min. For the same protein, the kcat [5] was 0.563 s⁻¹, the kcat/Km [5] was 11700 M⁻¹ s⁻¹ and the Km [6] was 136.06 ± 6.56 µM. For the same protein, the Vmax [6] was 0.000111 µmol/min, the kcat [6] was 0.128 s⁻¹ and the kcat/Km [6] was 939 M⁻¹ s⁻¹.

B2: IiUGT71B5b (Isatis tinctoria) (protein)
chain: MKIELVFMPSPGIGHLRSTVQLAKQLVNGDDRLSITVIIIPRSSGGDATDSAQISSLFTASQDRLRYESISVADEPTTNRLPTQHYIASQKPQVRDAVAKLIDPTRVDSPPRLAGFVVDMFCISMIDLADEFGVPTYMVYTSNARFLGITLHLQLMIDEKKYDATELDESVNELEFPCLTRPYPVDCLPHILISKDYLFMDQARSYRKMKGILVNTVAELEPHALELFSGDGDLPRAYPVGPVLHLESRSDHSNDDGKQSEILRWLDEQPAKSVVFLCFGSMGGFNEEQAREIAVALDRSGHRFLWSLRRASPDIMKEGPRDYTNLDEVLPEGFLDRTSERGKIIGWAPQAAVLAKPAIGGFVTHCGWNSMLESLWFGVPTVTWPLYAEQKVNAFEMVEELGLAVEIRRSLKGDLMFGGMETVTAEDIERAIRRVMEQGSDVRNRVKEMAEKCHVALTDGGSSKAALRKFIEDVVENVAA
notes: full-length ORF 1,443 bp, 480 aa; pET-32a+ tagged recombinant, E. coli BL21(DE3), Ni-NTA; tag removal not mentioned; gene in tandem cluster Ii4G26670/Ii4G26680/Ii4G26690 (Ii4G26690 = IiUGT71B5c); genome VHIU00000000
Protein B2 has a Km [7] of 61.34 ± 1.48 µM, a Vmax [7] of 2.41e-05 µmol/min and a kcat [7] of 0.0277 s⁻¹. It also gave a kcat/Km [7] of 451 M⁻¹ s⁻¹, a Km [8] of 135.48 ± 10.90 µM and a Vmax [8] of 0.000125 µmol/min. For the same protein, the kcat [8] was 0.143 s⁻¹ and the kcat/Km [8] was 1060 M⁻¹ s⁻¹.
